Reference: the nanobody polyreactivity screen of Harvey et al. (2022)

Experiment: yeast display, Sf9 membrane polyspecificity reagent, FACS + sequencing; frameworks hold sequencing errors
In short: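 A nanobody's polyreactivity label depends on the gate it was sorted from. Yeast display cells were stained with 10% biotinylated, detergent-solubilized Sf9 membrane reagent for 1 hour at 4 °C, enriched on streptavidin microbeads and sorted by FACS. The low and high (top ~1%) gates were set on anti-HA fluorescence for expression and streptavidin fluorescence for reagent binding.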

QVQLVESGGGLVQAGGSLRLSCAASGRIFGYYAMGWYRQAPGKERELVAVISWSGGSTYYADSVKGRFTISRDNAMNTVYLQMNSLKPEDSAVYYCAAERLYSIYDYWGQGTQVTVSS
polyreactivity (PSR sort gate): high polyreactivity

QVQLVESGGGLVQAGGSLRLSCAASGRSLHHYAMGWYSQAPGKERELVAAIRWGGGSTYYADSVKGRFTISRDNAKNTVYLQMNSLNPEDPAVYSCAAEVVAGYDYSQYYYWGQGTQVTVST
polyreactivity (PSR sort gate): low polyreactivity

QVQLVESGGGLVQAGGSLRLSCAASGFIFLLNAMGWYRQAPGKERELVAAISWGGGSTYYADSVKGRFTISRDNAKNTVYLQMNSLKPEDTAVYYCAAKPGKTPLTGHRGPYDTGYGYWGQGTQVTVSS
polyreactivity (PSR sort gate): low polyreactivity

QVQLVESGGGLVQAGGSLRLSCAASGSTFRLYTMGWYRQAPGKERELVASIRGSGGRTYYADSVKGRFTISRDNAKNTVYLQMNSLKPEDTAVYYCNAESYSTWSFGHRYEYDYWGQGTQVTVSS
polyreactivity (PSR sort gate): low polyreactivity

QVQHVESGGGLVQAGGRLRLRCAASGSIFGTYAMGWYRQAPGKERELVARISGGGSTYYADSVKGRFTISRDNAKNTVYLQMNSLKPEDTAVYYCNVRKWAYWSHAIIYNYWGQGTQVTVSS
polyreactivity (PSR sort gate): high polyreactivity

QVQIVESGGGLLQAGGSLRLSCAASGLTFGSYAMGWYRQAPGKERELVAAISRSGGSTYYADSVKGRFTISRDNAKNTVYLQMNSLKPEDTAVYYCNAVNPYYAPTERRVGFDYWGQGTQVTVSS
polyreactivity (PSR sort gate): high polyreactivity

QVQLVESGGGLVQAGGSLRLSCAASGITLAIYAMGWYRQAPGKERELVAAISSSGASTYYADSVKGRFTISRDNAKNTVYILMNSLKPEDTAVYYCAAAYGGSSYEYNYWGQGTQVTVSS
polyreactivity (PSR sort gate): low polyreactivity

QVQLEESGGGLVQAGGSLRLSCAASGLTFVRYAMGWYRQAPGKERELVAAISSGGSTNYADSVKGRVTISRDNAKNTVYLQMNSLKPEDTAVYYCAARPPRTYWRYQSDYWGQGTQVTVSS
polyreactivity (PSR sort gate): high polyreactivity

QVQLVESGGGLVQAGGSLRLSCAASGSILESIVMGWYRQAPGKERELVASISSSGDSSYADSVKGRFTISRDNAKNTVYLQMNSLKPEDTAVYYCAADRWYWTYALYYWGQGTQVTVSS
polyreactivity (PSR sort gate): low polyreactivity

QVQLVESGGGLVQAGGSLRLSCAASGSICRSYAMGWYRQAPGKERELVASITRSYGSTYYADSVKGRFTISRDNAKNTVYLQMNSLKPEDTAVYYCNAVVSKSRRFRVDYWGHGTQVTVSS
polyreactivity (PSR sort gate): high polyreactivity

QVQLVESGGGLVQAGGSLRLSCAASGSTFGYNGMGWYRQAPGKERELVAAISGGARTYADSVKGRFTISRDNAKNTVYLQMNSLKPEDTAVYYCAADSPVSVTADDGYWGQGTQVTVSS
polyreactivity (PSR sort gate): low polyreactivity

QVQLVESGGGLVQAGGSLRLSCAASGSIFRVYAMGWYRQAPGKERELVAVISIAGRTNYADSVKGRFTISRDNAKNTVYLQMNSLKPEDTAVYYCNAEWDLNHLYDSWGQGTQVTVSS
polyreactivity (PSR sort gate): low polyreactivity

QVQLVESGGGLVQAGGSLRLSCAASGFTFNKYAMGWYRQEPGKERELVAAISVSGSRTYYADSVKGRFTISRDNAKNTFYLQMNSLKPEDTAVYYCAATHYSQVSDDYWGQGTQVTVSS
polyreactivity (PSR sort gate): high polyreactivity

QVQLVESGGGLVQAGGSLRLSCAASGLIFYDNMGWYRQPPGKERELVAAITVSGGSTYYADSVKGRFTISRDNAKNTVYLQMKSLKPEDTAVYYCARELLSPTYQRWYYYWGQGTQVTVSS
polyreactivity (PSR sort gate): low polyreactivity

QVQLVESGGGLVQAGGRLRLSCAASGRTFIANVMGWYIQAPGKERELVAAITSGGGTSYADSVKGRFTISRDNAKNTVYLQMNSLKPEDTAVYYCNADGYLAERFVIRLDEYRDYDYWGQGTQVTVSS
polyreactivity (PSR sort gate): low polyreactivity

QVQLVESGGGLVQAGGSLRLSCAASGSTFGRYAMGWYRQAPGKERELVAAISRGGSTYYADSVKGRFTISRDNAKNTVYLQMNSLKPEDTAVYYCNKGDSKEYDVYYWGQGTQVTVSS
polyreactivity (PSR sort gate): low polyreactivity

QVQLVESGGGLVQAGGSLRLSCAASGRIFYPYAMGWYRQAPGKERELVAVINGSGGSTYYADSVKGRFTISRDNAKNTVYLQMNSLKPEDTAVYYCAAYFGHYWRYYYWGQGSQVTVSS
polyreactivity (PSR sort gate): high polyreactivity

QVQHVESGGGLVQAGGSLRLSCAASGRTYVNYVMGWYRQAPGKEREFVAAISRNGGSTYYADSVKGRFSISRDNAKYTFYLQMNSLKPEDTAVYYCAARPRRRYYGSDSWGQGTQVTVSS
polyreactivity (PSR sort gate): high polyreactivity

QVQLVESGGCLVQAGGSLRLSCAASGSTFHYNAMGWYRQAPGKERELVATISWSGGSTYYADSVKGRFTISRDNAKNTVYLQMNSLKPEDTAVYYCAARYSGYRGSFYGRHGGKYYYWGQGTQVTVSS
polyreactivity (PSR sort gate): high polyreactivity

QVQLVESGGGLVQAGGSLRLSCAASGRLSDNVMGWYRQAPGKERELVAAISSSGGTTYYADSVKGRFTISRDNAKNTVYLQMNSLKPEDTAVYYCNARTRGKMDYWGQGTQVTVSS
polyreactivity (PSR sort gate): high polyreactivity

QVQLVESGGGLVQAGGRLRLSCAASGFNFRYYAMGWYRQAPGKERELVAASSRSGGGTYYADSVKGRFTISRDTAQNTVYLQMNSLTPEDTAVYYCAADPSLGRGYDYWGQGTQVTVSS
polyreactivity (PSR sort gate): high polyreactivity

QVPQQESGGGLVQAGGSLRLSCAASGTIFQLTVMGRYRQAPGKERELVSSIDYGGNTNYADIVKGRFSISRVNAKNTVYLQMNRLKPEDTSVYYFAASSDSWTTHPYWGQATQVTVSS
polyreactivity (PSR sort gate): low polyreactivity

QVQLQESGGGLEQAGGSLRLSCAASGIIFDNPNMGWYRQAPGKERELVATINSGATTNYADSVKGRFTISRDNAKNTVYLQMNSLIPEDTAVYYCAVDLSPTYFYYWGQGTQVTVSS
polyreactivity (PSR sort gate): high polyreactivity

QVQLVESGGGLVQAGGSLRLSCAASGPTFYRYAMGRYRQAPGKERELVAAISASGGSTYYADSVKGRFTISRDNAKNTVYLQMNSLKPEDTAVYYCAARGWYSLYEFYYWGQGTQVTVSS
polyreactivity (PSR sort gate): high polyreactivity

QVQLVESCGGLVQARGSLRLSCAASGRTIDSYAMGWYRQAPGKERELVAAITSGVSTYYADSVKGRITISRDNATNTVYLQMNSLQPEDTSVYYCARKHAIWRGYDFWGQGTQVTVSS
polyreactivity (PSR sort gate): low polyreactivity

QVQLVESGGGLVQAGGSLRLSCAASGNIFGPNAMGWYRQAPGKESELVAAISISGSTYYADSVKGRFTISRDNAKNTVYLQRNSLNPEDTAVYYCAADYDSDYSWKYNYWGQGTQVTVSS
polyreactivity (PSR sort gate): low polyreactivity

QVQLVESGGGLVQAGGSLRLSCAASGLTFVAYAMGWYRQAPGKERELVASISSRTGGTSYADSVKGRFTISRDNAKNTVYLQMNSLKPEDTAVYYCNAAARRYTSVFYTSGYTFDYWGQGTQVTVSS
polyreactivity (PSR sort gate): low polyreactivity

QVQLVESGGGLVQAGGSLRLSCAASGSNFINNAMGWYRQAPGKERELVAAISGNADRTYYADSVKGRFTISRDNAKNTLYLQMNSLKPEETAVYYCNKGYGVYYTFGSWGQGTQVTVSS
polyreactivity (PSR sort gate): low polyreactivity

QVQLVESGGGLVQAGGSLRLSCSASGYTIDLYAKGWYRQAPGKERELVAAISIRGGSTYYADSVKGRFTISRDNAKNTVYLQMNSLKPEDTAVYYCATVTYRRSYIAYRGTGDYDYWGQGTQVTVSS
polyreactivity (PSR sort gate): low polyreactivity

QVQLQESGGGLVQAGGSLRLSCAASGYISSWYPMGWYRQAPGKEREFVATIAPGATTYYADSVKGRFTISRDYAKNTVYLQMNSLKPEDTAVYFCAAGPENNDFYSYWGQGTQVTVSS
polyreactivity (PSR sort gate): low polyreactivity

QVQLVESGGGLVQAGGSLRLSCAASGRIFGRYAMGWYRQAPGTERELVAAITSGGRTSYADSVKGRFTISRDNAKNTVDLQMNSLKPEDTAVYYCNVVSRNSIRFDYWGQGTQVTVSS
polyreactivity (PSR sort gate): high polyreactivity

QVQLVESGGGLVQAGGSLRLSCAASGRTFPWYTMGWYRQAPGKERELVAAISWSGGSTFYADSVKGRFTISRDNAKNTVYLQMNSLKPEDTAVYYCAARSRPTVQRGYAYGYWGQGTQVTVSS
polyreactivity (PSR sort gate): low polyreactivity

QVQLVESGGGLVQAGGSLRLSCAASGGTFSYYAMGWYRQAPGKERELVAAISGNGDTTYYADSVKGRFTSSRDNAKNTVYLQMNSLKPEYTAVYYCNVYVSAGEEVEYWGQGTQVTVSS
polyreactivity (PSR sort gate): low polyreactivity

QVQLVESGGGLVQEGGSLRLSCAASASTLYKYAMGWYRQAPGKERELVAAISWSGSSTYYADSVKGRFTISRDNAKNTVYLQMNSLKPEDTAVYYCNARWQEPLKYDYWGQGTQVTVSS
polyreactivity (PSR sort gate): low polyreactivity

QVQLVESGGGLVQAGGSLRLSCAASGSTFYYYAMGWSRPAPGKERELVAAISTRGGSTYYADSVKGRFTISRDNAKNTVYLQMNSLKPEDTAVYYCAKKYGYFGLHGYWGQGTQVTVSS
polyreactivity (PSR sort gate): high polyreactivity

QVQLVESGGGLVQAGGSLRLSCAASGSISDSYAMGWYRPAPGKERELVAAITSGDSTYYADSVKGRFTISRDNAKNTVYLQMNSLKPEDTAVYYCAKRVSRVLGYGFTDWSEYDYWGQGTQVTVSS
polyreactivity (PSR sort gate): low polyreactivity

QVQLVESGGGLVQAGGSLRLSCAASGRTFAIYVMGWYRQAPGKERELVAAITRVGSTYADSVKGRFTISRDNAKNTVYVQMNSLKPEDTAVYYCAAVSGVRSGPWRYDYWGQGTQVTVSS
polyreactivity (PSR sort gate): high polyreactivity

QVQLVESGGGLVQAGGSLGLSCAASGRTFSFYGMGWYRQAPGKERELVAAINSDSRTNYADSVKGRFTISRDNAKNTVYLQMNSLKPEDTAVYYCNAYWYTSTGQYSYEYWGQGTQVTVSS
polyreactivity (PSR sort gate): low polyreactivity

QVQLVESGGGLVQAGGSLRLSCAASGNTFRDYAMGWYRQAPGKERELVAAITSAGARTYYADSVKGRFTISRDNAKNTVYLQMNSLKPEDTAVYYCAADWSGYYTYDYWGQGTQVTVSS
polyreactivity (PSR sort gate): low polyreactivity

QDQLVESGGGLVQAGGSLRLSCAASGSIFGYNDMGWYRQAPGKERELVATITWGGGRTRYADSVKGRFTSSRDNAKNTVYLHMNSLKPEVTAVYYCAADVLRISTLLFRGPGFDSWGQGTQVTVSS
polyreactivity (PSR sort gate): low polyreactivity

QVQLVESGGGLVQAGGSLRLSCAASGSTFFFNAMGWYRQAPGKERELVAAITVRSGSTYYADSVKGRFTISRDNAKSTVYLQMNSLKPEDTAVYFCAADYSPGRSVVDYWGQGTQVTVSS
polyreactivity (PSR sort gate): low polyreactivity

QLQLVESGGGLVQAGGSLRLSCAATGRIFRFYALGWYRQATGKERELVADISRRGGSTYFADSVKGRFTISRDNAKNTVYVQMTSLKPEDTAVYYCNARWYRTGSTYHEDYWGQGTQVTVSS
polyreactivity (PSR sort gate): high polyreactivity

QVQLVESGGGLVQAGGSLRLSCAASGSILRRYAMGWYRQAPGKEREFVAAISYSGSRTYYADSVKGRFTISRDNAKNTVYLQMNSLKPEDTAVYFCAADSYGSRYEYWGQGTQVTVSS
polyreactivity (PSR sort gate): high polyreactivity
